Numbering of substitutions follows the chain as printed.
Key:
FANCJ M299I = molecular target: T1, FANCJ M299I (UniProt Q9BX63 1-1249, M299I); experiment: EMSA; 10/40/70 nM protein, 5 nM DNA, no ATP; wild-type level of binding; EMSA: 15 mM Na-phosphate pH 7.4, 45 mM NaCl, 3% glycerol, 40 mM Tris-HCl pH 7.4, 25 mM KCl, 100 ng/ul BSA, 2 mM DTT, 0.1 mM EDTA; 30 min at 25 C; 5% PAGE in 1x; details: protein: recombinant; tags: N-terminal Flag; label: 5'-FAM on strand 1
T1 sequence: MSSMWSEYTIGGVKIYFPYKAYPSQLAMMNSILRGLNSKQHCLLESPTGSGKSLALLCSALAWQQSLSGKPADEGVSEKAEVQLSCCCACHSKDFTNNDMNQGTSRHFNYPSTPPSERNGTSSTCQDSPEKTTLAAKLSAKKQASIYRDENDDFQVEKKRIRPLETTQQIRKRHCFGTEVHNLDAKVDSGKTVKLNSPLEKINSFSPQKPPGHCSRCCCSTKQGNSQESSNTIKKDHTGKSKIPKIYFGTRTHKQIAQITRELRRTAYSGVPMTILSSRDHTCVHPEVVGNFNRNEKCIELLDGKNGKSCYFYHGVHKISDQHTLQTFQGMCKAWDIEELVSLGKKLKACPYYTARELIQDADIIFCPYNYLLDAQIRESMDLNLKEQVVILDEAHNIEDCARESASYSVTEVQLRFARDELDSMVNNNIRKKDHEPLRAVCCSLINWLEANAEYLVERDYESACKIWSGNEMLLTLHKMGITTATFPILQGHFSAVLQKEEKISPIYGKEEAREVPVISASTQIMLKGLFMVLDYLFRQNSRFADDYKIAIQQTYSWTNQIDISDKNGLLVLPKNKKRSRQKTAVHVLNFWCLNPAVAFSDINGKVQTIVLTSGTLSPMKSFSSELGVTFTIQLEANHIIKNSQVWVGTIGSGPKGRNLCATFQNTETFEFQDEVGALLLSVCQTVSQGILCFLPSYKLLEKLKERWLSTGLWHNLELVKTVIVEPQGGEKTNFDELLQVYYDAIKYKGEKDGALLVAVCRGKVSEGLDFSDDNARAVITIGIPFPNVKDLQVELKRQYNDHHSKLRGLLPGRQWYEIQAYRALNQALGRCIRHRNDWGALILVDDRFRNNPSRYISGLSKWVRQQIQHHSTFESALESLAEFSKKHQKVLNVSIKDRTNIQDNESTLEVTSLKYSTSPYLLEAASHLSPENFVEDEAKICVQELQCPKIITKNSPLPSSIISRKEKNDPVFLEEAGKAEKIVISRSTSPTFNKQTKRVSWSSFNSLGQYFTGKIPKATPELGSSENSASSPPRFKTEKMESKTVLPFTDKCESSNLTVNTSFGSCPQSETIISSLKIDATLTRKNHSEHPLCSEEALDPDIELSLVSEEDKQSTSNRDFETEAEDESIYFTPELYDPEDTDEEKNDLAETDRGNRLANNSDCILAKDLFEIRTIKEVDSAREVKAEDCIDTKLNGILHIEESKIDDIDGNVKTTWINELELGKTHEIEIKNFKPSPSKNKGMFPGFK

FANCJ K52R = molecular target: T2, FANCJ K52R (UniProt Q9BX63 1-1249, K52R); experiment: EMSA; 10/40/70 nM protein, 5 nM DNA, no ATP; EMSA: 15 mM Na-phosphate pH 7.4, 45 mM NaCl, 3% glycerol, 40 mM Tris-HCl pH 7.4, 25 mM KCl, 100 ng/ul BSA, 2 mM DTT, 0.1 mM EDTA; 30 min at 25 C; 5% PAGE in 1x; details: protein: recombinant; tags: N-terminal Flag; label: 5'-FAM on strand 1
T2 sequence: T1 sequence with K52R, I299M

B1: Y-structure (XO1/sDO1) (dsDNA)
DNA 1: GACGCTGCCGAATTCTACCAGTGCCTTGCTAGGACATCTTTG
DNA 2: TTTTTTTTTTTTTTTTTTTTTTTTTTTTTTTTTTTTGGTAGAATTCGGCAGCGT
Question: Does B1 bind (FANCJ M299I)?
Answer: Result: binds

Question: Does B1 bind (FANCJ K52R)?
Answer: Result: binds
